{"source": "paper PMC12702776", "about": "“New insights into the classification of the RAC1 P29S hotspot mutation in melanoma as an oncogene” (Cancer Gene Therapy, 2025)", "binders": {"B1": {"name": "His-IQGAP1 C794 (C-terminal 794 amino acids of IQ motif-containing GTPase-activating protein 1) (domain or fragment)", "chain": "PPMVVVRKFVHLLDQSDQDFQEELDLMKMREEVITLIRSNQQLENDLNLMDIKIGLLVKNKITLQDVVSHSKKLTKKNKEQLSDMMMINKQKGGLKALSKEKREKLEAYQHLFYLLQTNPTYLAKLIFQMPQNKSTKFMDSVIFTLYNYASNQREEYLLLRLFKTALQEEIKSKVDQIQEIVTGNPTVIKMVVSFNRGARGQNALRQILAPVVKEIMDDKSLNIKTDPVDIYKSWVNQMESQTGEASKLPYDVTPEQALAHEEVKTRLDSSIRNMRAVTDKFLSAIVSSVDKIPYGMRFIAKVLKDSLHEKFPDAGEDELLKIIGNLLYYRYMNPAIVAPDAFDIIDLSAGGQLTTDQRRNLGSIAKMLQHAASNKMFLGDNAHLSIINEYLSQSYQKFRRFFQTACDVPELQDKFNVDEYSDLVTLTKPVIYISIGEIINTHTLLLDHQDAIAPEHNDPIHELLDDLGEVPTIESLIGESSGNLNDPNKEALAKTEVSLTLTNKFDVPGDENAEMDARTILLNTKRLIVDVIRFQPGETLTEILETPATSEQEAEHQRAMQRRAIRDAKTPDKMKKSKSVKEDSNLTLQEKKEKIQTGLKKLTELGTVDPKNKYQELINDIARDIRNQRRYRQRRKAELVKLQQTYAALNSKATFYGEQVDYYKSYIKTCLDNLASKGKVSKKPREMKGKKSKKISLKYTAARLHEKGVLLEIEDLQVNQFKNVIFEISPTEEVGDFEVKAKFMGVQMETFMLHYQDLLQLQYEGVAVMKLFDRAKVNVNLLIFLLNKKFYGK", "notes": "neither is stated here"}}, "target": "RAC1^P29S, purified (human, UniProt P63000 1-192, P29S)", "assay": "stopped-flow fluorimetry; mGppNHp-bound RAC1 with varying concentrations of His-IQGAP1 C794; kon, koff, Kd = koff/kon", "conditions": "both partners purified"}
{"binder": "B1", "values": [{"measurement": "fold higher binding affinity than that of PAK1 for RAC1^P29S", "value": 30, "unit": "fold"}]}
